According to patent US6869925 (Amgen, dated 2005):

Columns and labels:
[1] = biological target: SLPI binding sites on U937 cells (human monocyte cell line; intact cells, PMA-induced cells or plasma membranes) (human); experiment: 125I-SLPI saturation binding, U937 cells plus PMA, *SLPI at 1,280 pM
[2] = biological target: SLPI binding sites on U937 cells (human monocyte cell line; intact cells, PMA-induced cells or plasma membranes) (human); experiment: 125I-SLPI saturation binding, U937 cells plus PMA, *SLPI at 20,480 pM
[3] = biological target: SLPI binding sites on U937 cells (human monocyte cell line; intact cells, PMA-induced cells or plasma membranes) (human); experiment: 125I-SLPI saturation binding, intact U937 cells, *SLPI at 640 pM
[4] = biological target: SLPI binding sites on U937 cells (human monocyte cell line; intact cells, PMA-induced cells or plasma membranes) (human); experiment: competition with 125I-SLPI, intact U937 cells, competitor at 270 nM
[5] = biological target: SLPI binding sites on U937 cells (human monocyte cell line; intact cells, PMA-induced cells or plasma membranes) (human); experiment: 125I-SLPI saturation binding, intact U937 cells, *SLPI at 40 pM
[6] = biological target: SLPI binding sites on HuT78 cells (human T cell line) (human); experiment: competition with 125I-SLPI, intact HuT78 cells, cold SLPI at 860 nM
[7] = biological target: SLPI binding sites on U937 cells (human monocyte cell line; intact cells, PMA-induced cells or plasma membranes) (human); experiment: 125I-SLPI saturation binding, U937 cells minus PMA, *SLPI at 10,240 pM
[8] = biological target: SLPI binding sites on U937 cells (human monocyte cell line; intact cells, PMA-induced cells or plasma membranes) (human); experiment: competition with 125I-SLPI, intact U937 cells, competitor at 860 nM
[9] = biological target: SLPI binding sites on HuT78 cells (human T cell line) (human); experiment: competition with 125I-SLPI, intact HuT78 cells, competitor at 0.80 nM
[10] = biological target: SLPI binding sites on U937 cells (human monocyte cell line; intact cells, PMA-induced cells or plasma membranes) (human); experiment: 125I-SLPI saturation binding, U937 cells plus PMA, *SLPI at 5,120 pM
[11] = biological target: SLPI binding sites on U937 cells (human monocyte cell line; intact cells, PMA-induced cells or plasma membranes) (human); experiment: competition with 125I-SLPI, intact U937 cells, competitor at 84 nM
[12] = biological target: SLPI binding sites on HuT78 cells (human T cell line) (human); experiment: 125I-SLPI saturation binding, intact HuT78 cells, *SLPI at 320 pM
[13] = biological target: SLPI binding sites on U937 cells (human monocyte cell line; intact cells, PMA-induced cells or plasma membranes) (human); experiment: 125I-SLPI saturation binding, U937 cells minus PMA, *SLPI at 20,480 pM
[14] = biological target: SLPI binding sites on U937 cells (human monocyte cell line; intact cells, PMA-induced cells or plasma membranes) (human); experiment: competition with 125I-SLPI, intact U937 cells, cold SLPI at 26 nM
[15] = biological target: SLPI binding sites on HuT78 cells (human T cell line) (human); experiment: competition with 125I-SLPI, intact HuT78 cells, cold SLPI at 0.80 nM
[16] = biological target: SLPI binding sites on U937 cells (human monocyte cell line; intact cells, PMA-induced cells or plasma membranes) (human); experiment: competition with 125I-SLPI, intact U937 cells, cold SLPI at 860 nM
[17] = biological target: SLPI binding sites on U937 cells (human monocyte cell line; intact cells, PMA-induced cells or plasma membranes) (human); experiment: competition with 125I-SLPI, U937 plasma membranes, Kd by Cheng-Prusoff
[18] = biological target: SLPI binding sites on U937 cells (human monocyte cell line; intact cells, PMA-induced cells or plasma membranes) (human); experiment: 125I-SLPI saturation binding, intact U937 cells, *SLPI at 20,480 pM
[19] = biological target: SLPI binding sites on HuT78 cells (human T cell line) (human); experiment: competition with 125I-SLPI, intact HuT78 cells, cold SLPI at 26 nM
[20] = biological target: SLPI binding sites on U937 cells (human monocyte cell line; intact cells, PMA-induced cells or plasma membranes) (human); experiment: 125I-SLPI saturation binding, U937 cells minus PMA, *SLPI at 1280 pM
[21] = biological target: SLPI binding sites on HuT78 cells (human T cell line) (human); experiment: 125I-SLPI saturation binding, intact HuT78 cells, *SLPI at 20,480 pM
[22] = biological target: SLPI binding sites on U937 cells (human monocyte cell line; intact cells, PMA-induced cells or plasma membranes) (human); experiment: competition with 125I-SLPI, intact U937 cells, cold SLPI at 0.00 nM
[23] = biological target: SLPI binding sites on HuT78 cells (human T cell line) (human); experiment: competition with 125I-SLPI, intact HuT78 cells, cold SLPI at 84 nM
[24] = biological target: SLPI binding sites on U937 cells (human monocyte cell line; intact cells, PMA-induced cells or plasma membranes) (human); experiment: 125I-SLPI saturation binding, U937 cells minus PMA, *SLPI at 2560 pM

Chain of serine leukocyte protease inhibitor (SLPI) (P03973 26-132): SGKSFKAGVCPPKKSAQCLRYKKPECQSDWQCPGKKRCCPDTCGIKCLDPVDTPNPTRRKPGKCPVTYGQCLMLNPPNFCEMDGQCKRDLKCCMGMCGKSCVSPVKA

Which bound pM [1] does the source give for “serine leukocyte protease inhibitor (SLPI) (from UniProt P03973 26-132)” here?
Its bound pM is 130 pM.

What about the bound per free [1] of the same substance?
The bound per free was 0.113.

What about the sites bound per cell (sites per cell) [1] of the same substance?
Its sites bound per cell (sites per cell) is 7830.

And the specific cpm [1]?
Its specific cpm is 1390 cpm.

What about the bound pM [2] of the same substance?
Its bound pM is 255 pM.

What about the bound per free [2] of the same substance?
Its bound per free is 0.0126.

And the sites bound per cell (sites per cell) [2]?
The sites bound per cell (sites per cell) was 15400.

And the specific cpm [2]?
Its specific cpm is 2720 cpm.

And the bound *SLPI (pM) [3]?
The bound *SLPI (pM) was 116 pM.

What about the bound per free [3] of the same substance?
Its bound per free is 0.221.

What about the sites bound per cell (sites per cell) [3] of the same substance?
The sites bound per cell (sites per cell) was 6990.

What about the specific cpm [3] of the same substance?
The specific cpm was 4630 cpm.

What about the % *SLPI BOUND [4] of the same substance?
The % *SLPI BOUND was 5%.

And the bound *SLPI (pM) [5]?
The bound *SLPI (pM) was 9.5 pM.

And the bound per free [5]?
Its bound per free is 0.311.

And the sites bound per cell (sites per cell) [5]?
Its sites bound per cell (sites per cell) is 572.

What about the specific cpm [5] of the same substance?
The specific cpm was 380 cpm.

What about the % *SLPI BOUND [6] of the same substance?
The % *SLPI BOUND was 8.7%.

What about the bound *SLPI (pM) [7] of the same substance?
Its bound *SLPI (pM) is 844 pM.

And the bound per free [7]?
Its bound per free is 0.09.

What about the sites bound per cell (sites per cell) [7] of the same substance?
Its sites bound per cell (sites per cell) is 50800.

And the specific cpm [7]?
The specific cpm was 9020 cpm.

What about the % *SLPI BOUND [8] of the same substance?
The % *SLPI BOUND was 4%.

And the % *SLPI BOUND [9]?
Its % *SLPI BOUND is 79%.

And the bound pM [10]?
Its bound pM is 135 pM.

And the bound per free [10]?
Its bound per free is 0.027.

And the sites bound per cell (sites per cell) [10]?
Its sites bound per cell (sites per cell) is 8130.

What about the specific cpm [10] of the same substance?
The specific cpm was 1440 cpm.

What about the % *SLPI BOUND [11] of the same substance?
Its % *SLPI BOUND is 7%.

What about the bound pM [12] of the same substance?
The bound pM was 2.53 pM.

And the bound per free [12]?
The bound per free was 0.0079.

What about the sites bound per cell (sites per cell) [12] of the same substance?
Its sites bound per cell (sites per cell) is 152.

And the specific cpm [12]?
The specific cpm was 101 cpm.

And the bound *SLPI (pM) [13]?
The bound *SLPI (pM) was 915 pM.

What about the bound per free [13] of the same substance?
The bound per free was 0.047.

And the sites bound per cell (sites per cell) [13]?
Its sites bound per cell (sites per cell) is 55100.

What about the specific cpm [13] of the same substance?
The specific cpm was 9780 cpm.

What about the % *SLPI BOUND [14] of the same substance?
Its % *SLPI BOUND is 12%.

And the % *SLPI BOUND [15]?
Its % *SLPI BOUND is 62%.

What about the % *SLPI BOUND [16] of the same substance?
Its % *SLPI BOUND is 0%.

And the Kd [17]?
The Kd was 2 nM.

What about the bound *SLPI (pM) [18] of the same substance?
The bound *SLPI (pM) was 471 pM.

And the bound per free [18]?
Its bound per free is 0.024.

And the sites bound per cell (sites per cell) [18]?
The sites bound per cell (sites per cell) was 28400.

And the specific cpm [18]?
Its specific cpm is 18800 cpm.

And the % *SLPI BOUND [19]?
Its % *SLPI BOUND is 37%.

And the bound *SLPI (pM) [20]?
Its bound *SLPI (pM) is 396 pM.

And the bound per free [20]?
The bound per free was 0.448.

And the sites bound per cell (sites per cell) [20]?
Its sites bound per cell (sites per cell) is 23900.

And the specific cpm [20]?
The specific cpm was 4230 cpm.

And the bound pM [21]?
The bound pM was 30.3 pM.

What about the bound per free [21] of the same substance?
Its bound per free is 0.0015.

What about the sites bound per cell (sites per cell) [21] of the same substance?
Its sites bound per cell (sites per cell) is 1820.

And the specific cpm [21]?
Its specific cpm is 1210 cpm.

And the % *SLPI BOUND [22]?
The % *SLPI BOUND was 94%.

And the % *SLPI BOUND [23]?
Its % *SLPI BOUND is 9.3%.

What about the bound *SLPI (pM) [24] of the same substance?
The bound *SLPI (pM) was 593 pM.

What about the bound per free [24] of the same substance?
The bound per free was 0.301.

What about the sites bound per cell (sites per cell) [24] of the same substance?
The sites bound per cell (sites per cell) was 35700.

And the specific cpm [24]?
Its specific cpm is 6340 cpm.
